Literature values, collected in article PMC8438204, “Unraveling the Thermodynamics of Ultra-tight Binding of Intrinsically Disordered Proteins” (Frontiers in Molecular Biosciences, 2021).

Assays:
CcdB2 = conditions: ref Drobnak et al., 2013
Protocol: Supplement DataSheet1.docx, table 1: Table S1. Thermodynamic parameters and structural properties of the complexes. All parameters are reported at T = 25°C. | column: Thermodynamic parameters || Nonetheless, a handful of examples of IDP binders with ultra-high affinity have been characterized to date. […] Complexes are ordered according to the degree of energy optimization as estimated by the ΔH bind/ASAint values. For the HigA2_3-23-HigB2 complex the degree of energy optimization is similar to one observed for the pairs of globular high affinity binders (Supplementary Table S1, Figure 3A). […] The high affinit ...

[1] = tested on: E7-Im7 (colicin DNase - immunity protein); conditions: ref Keeble et al., 2006
Protocol: Supplement DataSheet1.docx, table 1: Table S1. Thermodynamic parameters and structural properties of the complexes. All parameters are reported at T = 25°C. | column: Thermodynamic parameters

barnase-barstar = conditions: ref Frisch et al., 1997
Protocol: Supplement DataSheet1.docx, table 1: Table S1. Thermodynamic parameters and structural properties of the complexes. All parameters are reported at T = 25°C. | column: Thermodynamic parameters || Next, we examine how the binding energetics of HigA2_3-23-HigB2 compares to other ultra-high affinity complexes formed by globular proteins. These include well-known examples such as the barnase-barstar and the complexes between various immunity proteins and colicin-DNases ([Hartley, 1989]; [Keeble et al., 2006]). The overall Gibbs free energies of globular high affinity complexes (ΔG assoc about −19 kcal/mol) are approximately 3 kcal/mol more negative compared to HigA2_3–23-HigB2. Since no significant conformational changes occur upon formation of globular high affinity complexes in any of th ... || Nonetheless, a handful of examples of IDP binders with ultra-high affinity have been characterized to date.

B1: CcdA (protein, UniProt P62552 1-72, looked up)
Antitoxin CcdA: MKQRITVTVDSDSYQLLKAYDVNISGLVSTTMQNEARRLRAERWKAENQEGMAEVARFIEMNGSFADENRDW
ΔG (association) (CcdB2; 25°C): -15.6 kcal/mol | Kd (CcdB2): 4 pM

B2: E7-Im7 (protein, UniProt Q47112 1-576; Q03708 1-87, looked up)
Colicin-E7: MSGGDGRGHNSGAHNTGGNINGGPTGLGGNGGASDGSGWSSENNPWGGGSGSGVHWGGGSGHGNGGGNSNSGGGSNSSVAAPMAFGFPALAAPGAGTLGISVSGEALSAAIADIFAALKGPFKFSAWGIALYGILPSEIAKDDPNMMSKIVTSLPAETVTNVQVSTLPLDQATVSVTKRVTDVVKDTRQHIAVVAGVPMSVPVVNAKPTRTPGVFHASFPGVPSLTVSTVKGLPVSTTLPRGITEDKGRTAVPAGFTFGGGSHEAVIRFPKESGQKPVYVSVTDVLTPAQVKQRQDEEKRLQQEWNDAHPVEVAERNYEQARAELNQANKDVARNQERQAKAVQVYNSRKSELDAANKTLADAKAEIKQFERFAREPMAAGHRMWQMAGLKAQRAQTDVNNKKAAFDAAAKEKSDADVALSSALERRKQKENKEKDAKAKLDKESKRNKPGKATGKGKPVNNKWLNNAGKDLGSPVPDRIANKLRDKEFKSFDDFRKKFWEEVSKDPELSKQFSRNNNDRMKVGKAPKTRTQDVSGKRTSFELHHEKPISQNGGVYDMDNISVVTPKRHIDIHRGK
Colicin-E7 immunity protein: MELKNSISDYTEAEFVQLLKEIEKENVAATDDVLDVLLEHFVKITEHPDGTDLIYYPSDNRDDSPEGIVKEIKEWRAANGKPGFKQG
-TΔS ([1]; 25°C): 10.5 kcal/mol | ΔG ([1]; 25°C): -19.8 kcal/mol | ΔH ([1]; 25°C): -30.3 ± 0.8 kcal/mol | ΔCp [1]: -0.69 kcal mol^-1 K^-1

B3: barnase-barstar (protein, UniProt P00648 48-157; P11540 2-90, looked up)
Ribonuclease: AQVINTFDGVADYLQTYHKLPDNYITKSEAQALGWVASKGNLADVAPGKSIGGDIFSNREGKLPGKSGRTWREADINYTSGFRNSDRILYSSDWLIYKTTDHYQTFTKIR
Barstar: KKAVINGEQIRSISDLHQTLKKELALPEYYGENLDALWDCLTGWVEYPLVLEWRQFEQSKQLTENGAESVLQVFREAKAEGCDITIILS
-TΔS (barnase-barstar; 25°C): -0.1 kcal/mol | ΔG (barnase-barstar; 25°C): -19 kcal/mol | ΔCp (barnase-barstar): -0.36 ± 0.02 kcal mol^-1 K^-1
